Data set [1] addresses T1, GST-Hera_RBD (Thermus thermophilus, UniProt O07897 424-510).
T1 sequence: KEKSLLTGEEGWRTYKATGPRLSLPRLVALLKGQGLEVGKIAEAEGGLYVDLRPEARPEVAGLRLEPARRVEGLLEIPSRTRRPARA
Description: EMSA; 6 uM RNA; 12% glycerol; Anisotropy: 50 mM Tris/HCl pH 7.5, 150 mM NaCl, 5 mM MgCl2 (Fig 2), 25 C, 50 nM RNA; EMSA: same Tris/NaCl, 12% glycerol, 25 C; NMR: 25 mM Bis-Tris/HCl pH 6.0, 50 mM NaCl, 10% D2O, 37 C. The following applies: protein: recombinant; tags: N-terminal GST; label: 5'-fluorescein; hairpin with 5' single strand.

Data set [2] concerns the target T2, Hera_RBD R492A (Thermus thermophilus, UniProt O07897 424-510, R492A).
T2 sequence: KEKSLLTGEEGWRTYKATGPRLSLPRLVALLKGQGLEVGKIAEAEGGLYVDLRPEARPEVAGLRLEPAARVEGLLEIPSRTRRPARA
Put plainly: fluorescence anisotropy; 5 mM Mg2+; Anisotropy: 50 mM Tris/HCl pH 7.5, 150 mM NaCl, 5 mM MgCl2 (Fig 2), 25 C, 50 nM RNA; EMSA: same Tris/NaCl, 12% glycerol, 25 C; NMR: 25 mM Bis-Tris/HCl pH 6.0, 50 mM NaCl, 10% D2O, 37 C. As to conditions: protein: recombinant; label: 5'-fluorescein; hairpin with 5' single strand.

The target of data set [3] is T3, Hera_RBD Q457C (Thermus thermophilus, UniProt O07897 424-510, Q457C).
T3 sequence: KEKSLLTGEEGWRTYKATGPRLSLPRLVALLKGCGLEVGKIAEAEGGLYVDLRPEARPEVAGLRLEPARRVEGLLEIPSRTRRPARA
The description is as above. The following applies: protein: recombinant; label: 5'-fluorescein; hairpin with 5' single strand.

The target of data set [4] is T4, Hera_RBD K439A (Thermus thermophilus, UniProt O07897 424-510, K439A).
T4 sequence: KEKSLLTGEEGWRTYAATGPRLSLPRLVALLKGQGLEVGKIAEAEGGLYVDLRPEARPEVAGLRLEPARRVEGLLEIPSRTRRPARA
The data set is described as above. The following applies: protein: recombinant; label: 5'-fluorescein; hairpin with 5' single strand.

Data set [5] deals with T5, Hera_RBD S446C (Thermus thermophilus, UniProt O07897 424-510, S446C).
T5 sequence: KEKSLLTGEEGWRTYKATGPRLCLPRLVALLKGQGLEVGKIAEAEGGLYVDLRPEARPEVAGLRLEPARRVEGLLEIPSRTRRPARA
The description is as above. As to conditions: protein: recombinant; label: 5'-fluorescein; hairpin with 5' single strand.

The target of data set [6] is T6, Hera_RBD R487A (Thermus thermophilus, UniProt O07897 424-510, R487A).
T6 sequence: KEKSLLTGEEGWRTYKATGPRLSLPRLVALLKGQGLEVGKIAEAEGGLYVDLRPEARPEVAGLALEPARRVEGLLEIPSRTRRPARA
The description is as above. The following applies: protein: recombinant; label: 5'-fluorescein; hairpin with 5' single strand.

Where only a bound is given, the exact number is not on record here.

In the case of GCAGGUCCCAAGGGUUGGGCUGUUCGCCCAUU (structured_RNA) [32mer], in data set [1], the dissociation constant Kd was approximately 7 µM. The binding signal in data set [2], in data set [3], in data set [4], in data set [5] and in data set [6] was less than 5 fold Kd increase in each case.

The values above are taken from publication PMC3695512, “Recognition of two distinct elements in the RNA substrate by the RNA-binding domain of the T. thermophilus DEAD box helicase Hera”.
